Laboratory results: PMC4356368, “Four crystal structures of human LLT1, a ligand of human NKR-P1, in varied glycosylation and oligomerization states” (Acta Crystallographica Section D: Biological Crystallography, 2015)

Experiments:
[1] = target: LLT1 produced in the HEK293T cell line with wild-type complex N-glycosylation (human); assay: AUC; sedimentation velocity, 50 000 rev/min, 20°C, absorbance 280 nm, 10 mM HEPES pH 7.5, 150 mM NaCl, 10 mM NaN3; several concentrations (HEK293T protein at 0.2 mg/ml and tenfold diluted; GnTI- protein at five concentrations); continuous size-distribution and monomer-dimer self-association models; dimer to monomers
[2] = target: the molecule itself; assay: crystal structure; LLT1_D1 and LLT1_D2: deglycosylated protein, 30%(w/v) PEG 6000, 0.1 M HEPES pH 7.0, 294 K; one dimer in the asymmetric unit, P212121
[3] = target: the molecule itself; assay: crystal structure; LLT1_glyco: GlcNAc2Man5-glycosylated protein, 40%(v/v) PEG 300, 0.1 M citrate-phosphate pH 4.2, 288 K; P6322, hexamer of three dimers by crystal symmetry
[4] = target: the molecule itself; assay: AUC; sedimentation velocity, 50 000 rev/min, 20°C, absorbance 280 nm, 10 mM HEPES pH 7.5, 150 mM NaCl, 10 mM NaN3; several concentrations (HEK293T protein at 0.2 mg/ml and tenfold diluted; GnTI- protein at five concentrations); continuous size-distribution and monomer-dimer self-association models; dimer to monomers
[5] = target: the molecule itself; assay: dynamic light scattering; 1 mg/ml in 10 mM HEPES, 150 mM NaCl, 10 mM NaN3 pH 7.5; 291, 298 and 303 K

LLT1 produced in the HEK293T cell line with wild-type complex N-glycosylation (domain or fragment)
stoichiometry N [1]: 2

B1: Human LLT1 C-type lectin-like extracellular domain (Gln72-Val191, His176Cys), deglycosylated after the first N-acetylglucosamine unit (domain or fragment)
chain: ITGQAACPESWIGFQRKCFYFSDDTKNWTSSQRFCDSQDADLAQVESFQELNFLLRYKGPSDHWIGLSREQGQPWKWINGTEWTRQFPILGAGECAYLNDKGASSARCYTERKWICSKSDIHV
modifications: single N-linked GlcNAc left at Asn95 and Asn147 after Endo F1
notes: remnant of the secretion leader at the beginning of the chain; LLT1 (lectin-like transcript 1), human, UniProt Q9UHP7 isoform 1, CTL extracellular domain Gln72-Val191 with His176 to Cys176; Same polypeptide as m1; it differs only in the glycans; L-arginine-HCl (0.4 M) was added after deglycosylation; also called LLT1_mono; LLT1_D1
stoichiometry N [2]: 2

B2: Human LLT1 C-type lectin-like extracellular domain (Gln72-Val191, His176Cys) with homogeneous GlcNAc2Man5 N-glycosylation (domain or fragment)
chain: ITGQAACPESWIGFQRKCFYFSDDTKNWTSSQRFCDSQDADLAQVESFQELNFLLRYKGPSDHWIGLSREQGQPWKWINGTEWTRQFPILGAGECAYLNDKGASSARCYTERKWICSKSDIHV
modifications: N-linked GlcNAc2Man5 glycans at Asn95 and Asn147
notes: remnant of the secretion leader at the beginning of the chain; LLT1 (lectin-like transcript 1), human, UniProt Q9UHP7 isoform 1, CTL extracellular domain Gln72-Val191 with His176 to Cys176; the construct is described in Bláha et al. (2015); also called LLT1_glyco; glycosylated LLT1; source: HEK293S GnTI- cells, transiently transfected, secreted, purified (Talon IMAC, Superdex 200 SEC)
stoichiometry N [3]: 6 | Kd [4]: ~20 µM | stoichiometry N [5]: 2
